Experimental data reported in the nanobody polyreactivity screen of Harvey et al. (2022).

Experiment: yeast display, Sf9 membrane polyspecificity reagent, FACS + sequencing; frameworks hold sequencing errors
How it was run: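 A synthetic nanobody library was expressed on Saccharomyces cerevisiae BJ5465 by galactose induction for 36–48 hours. The library was stained for 1 hour at 4 °C with 10% biotinylated, detergent-solubilized Sf9 membrane reagent and enriched with streptavidin microbeads before FACS. Low and high (top ~1%) gates were set on anti-HA fluorescence for expression and streptavidin fluorescence for reagent binding, and each polyreactivity label reflects the gate of origin.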
In the case of “QVQLVESGGGLVLAGGSLRLSCAASGFIFDIYAMGCYRQAPGKERELVASITWDDGSTYYADSVKGRFTISRDNAKNTVYLQMNSLNPEDTAVYYCAADFEAGGYSLDYWGHGTQVTVSS”, the “polyreactivity (PSR sort gate)” value is reported as “low polyreactivity”. For “QVQLVESGGGLVLAGGSLRLSCAASGFILLYYAMGWYREATGKERELVAAISWTGGRTYYADSVKGRFTISRDNAKNTVYLQMNRLKPEDTAVYYCNTFKFFCRKYGYWGQGTQVTVSS”, the “polyreactivity (PSR sort gate)” value was “low polyreactivity”. In the case of “QVQLVESGGGLVLAGGSLRLSCAASGIIFYRNAMGWYRQAPGKERELVAAITSSGGRTYYADSVKGRFTISRDNAKNTVYLQMNSLKPEDTAVYYCAATRMYWKIFYGDGDYWGQGTQVTVST”, the “polyreactivity (PSR sort gate)” value is reported as “high polyreactivity”. In the case of “QVQLVESGGGLVLAGGSLRLSCAASGIIFYYYTMGWYRQAPGKERELVAWSGGNTNYADSVKGRFTISRDNAKNTVYLQMNSLIPEDSAVYYCNALAIWSDDWDQWISYADDYWGQGTQVTVSS”, the “polyreactivity (PSR sort gate)” value is reported as “low polyreactivity”. For “QVQLVESGGGLVLAGGSLRLSCAASGLIFAVYAMGWYRQAPGKERELVAGISASAASTYYADSVKGRFTISRDNAKNTVYLQMNSLKPEDTAVYYCAAGFYRRGKYDYWGQGTQVTVSS”, the “polyreactivity (PSR sort gate)” value was “high polyreactivity”. With “QVQLVESGGGLVLAGGSLRLSCAASGRTFGYYTMGWYRQAPGKERELVAGISSAGSTNYADSVKGRFTLSRDYAKNTVYLQMNSLKPEDTAVYYCAARYQFYRYDSTYYYCGQGTQVTVSS” the “polyreactivity (PSR sort gate)” value was “high polyreactivity”. In the case of “QVQLVESGGGLVLAGGSLRLSCAASGSIFDDNAMGWYIQAPGKERELVAANTVSTDTTYYADSVKGRFTISRDIAKNTVSLLMNSLKPEDTAVYYCAAEGPGYGPTGDFYWYTYYYWGQGTQVTVSS”, the “polyreactivity (PSR sort gate)” value is reported as “low polyreactivity”. For “QVQLVESGGGLVLAGGSLRLSCAASGSIFGPYAMGWYRQAPGKERELVAAIRSGGSTNYADSVKGRFTISRDNAKNTVYLQMNSLKPEDNAVYYCAAEYWGYPYDYWGQGTQVTVSS”, the “polyreactivity (PSR sort gate)” value was “low polyreactivity”. In the case of “QVQLVESGGGLVLAGGSLRLSCAASGSIFPLYAMGWYRQAPGKERELVAAITGTSSTYADSVKGRFTISRDNAKNTVYLQMNSLKPEDTAVYYCARVGWSWPRREKYNYWGQGTQVTVSS”, the “polyreactivity (PSR sort gate)” value is reported as “high polyreactivity”. In the case of “QVQLVESGGGLVLAGGSLRLSCAASGSTFYAHAMGWYRQARGKERELVAAITSGGSTNYADSVKGRFTISRDNAKNTVNLQINSLKPEDTAVYYCATPVNRERHAEDYWGQGTQVTVSS”, the “polyreactivity (PSR sort gate)” value is reported as “low polyreactivity”. For “QVQLVESGGGLVLPGGRLRLSCAASGGTFSTYAIASYRQGPGKERELVAAISSRGTSTYYADSVKGRFTISRDNAKNSVYLQMNSLKPEDTAVYYCAAVGVKQFLGGNPFDYWGQGTQVTVSS”, the “polyreactivity (PSR sort gate)” value was “high polyreactivity”. In the case of “QVQLVESGGGLVMAGGRLRLSCAASGSTFGYYAMGWYRQAPGKERELVAVITTRVGSTYYADSVKGRFTFSRDNAKNTVYLQMNSLKPEDTAVYYCNASGRTRSYSGSFSKHYYWGQGTQVTVSS”, the “polyreactivity (PSR sort gate)” value is reported as “high polyreactivity”. In the case of “QVQLVESGGGLVMAVGSLRLSCAASGSTFAGNAMGWYRQAPGKERELVAAISIVGSTSYADSVKGRFTISRDNAKITFYLQMNSLKPEDTAVYDCAAEWVTSYLNYYHWGQGTQVTVSS”, the “polyreactivity (PSR sort gate)” value is reported as “low polyreactivity”. With “QVQLVESGGGLVNAGGSLRLSCAASGITLVVYGMGWYRQAPGKETELVAAMTSGGRTYYADSVTGRFTISRDNAKNTVYLQMNSLKPEDTAVYYCAADRYFRQYGRYYYWGQGTQVTVSS” the “polyreactivity (PSR sort gate)” value was “high polyreactivity”. For “QVQLVESGGGLVNAGGSLRLSCAASGRTFRNYAMGWYRQAPGKERELVAANSSGGSTNYADSVKGRFTISRDNAKNTVYLQMNSLKPEDTAVYFCAARQRAYYGPGFDYWGQGTQVTVSS”, the “polyreactivity (PSR sort gate)” value was “low polyreactivity”. With “QVQLVESGGGLVNAGGSLRLSCAASGSIFKYNVMGWYRQAPGKEREMVAAITSRGTSTYYADSVKGRFTISRDNAKNTVYLQMNSLKPEDTAVYYCAADDNYYTFGYWGQGTQVTVSS” the “polyreactivity (PSR sort gate)” value was “high polyreactivity”. With “QVQLVESGGGLVPAGGSLLLSCAASGLTFYVYAMGWYRQAPGKERELVAAISSGGRTYYADSVKGRFTISRDNAKNTVYLQMNSLKPEDTAVYYCAAFRHRNYGYWGQGTQVTVSS” the “polyreactivity (PSR sort gate)” value was “high polyreactivity”. With “QVQLVESGGGLVPAGGSLRLSCAASGGTFYTYVMGWSSQAPGKERELGAAIAGSGNTYYADSVKGRFTISRDKAKKTVYLQMNSLKPEDTAVYYCAKVLRMYPSGSWYGYWGQGTQVTVSS” the “polyreactivity (PSR sort gate)” value was “high polyreactivity”. For “QVQLVESGGGLVPAGGSLRLSCAASGRIFPQYAMGWYRQAPGKERELVAAISYRGGSTYYADSVKGRFTISRDNAKNTVYSQMNSLKPEDTAVYYCAAKRYNYWGQGTQVTVST”, the “polyreactivity (PSR sort gate)” value was “high polyreactivity”. With “QVQLVESGGGLVPAGGSLRLSCAASGSIFGRNTMGWYRQAPGKERELVAAISSRGTSTYYADSVKGRFTISRDNAKNTVYLQMNSLKPEDTAVYYSAARVYPYNYWGQGTQVTVSS” the “polyreactivity (PSR sort gate)” value was “high polyreactivity”. With “QVQLVESGGGLVPAGGSLRLSCAASGSTFHYYTMGWYRQAPGKERELVAAISWRGTSTYYADSVKGRFTISRDNAKNTVYLQMNSLKAEDTGVYYCAVRSSPGAGYYYWGQGTQVTVSS” the “polyreactivity (PSR sort gate)” value was “high polyreactivity”. For “QVQLVESGGGLVPAGGTLRLSCAASGFNFYFNTMGWYRQATGKERELVAAISSGGSTYYADSVKGRFTISRDNAKNTVSFQMNSLKPEDTAVYYCNKDYLQYYPYDYWGHGTQVTVSS”, the “polyreactivity (PSR sort gate)” value was “low polyreactivity”. In the case of “QVQLVESGGGLVPARGSLRLSCAASGRTFGPYAMGWYRQAPGKERELVAAITDTGSGTYYADSVKGRFTISRDNSKNTVYLQMNSLKPVDTAVYYCNAVRKYWGQGTQVTVSS”, the “polyreactivity (PSR sort gate)” value is reported as “low polyreactivity”. In the case of “QVQLVESGGGLVQAAGSLRLICAASGSTFPANAMGWYRQEPGKERELVASITKSGGDTYYADSVKGRFTISRDNAKNSVYVQMNSLKPEDTAVYDCAKDYVNQYGVYKVWANNYNYWGQGTQVTVSS”, the “polyreactivity (PSR sort gate)” value is reported as “low polyreactivity”. In the case of “QVQLVESGGGLVQAAGSLRLSCAASGRIFRRYAMGWYRQAPGKERELVAAITNNGANTYYADSVKGRFTISRDNAKNTVYLQMNSLKPEDTAVYDCARKSYPGRPAYRYDYWGQGTQVTVSS”, the “polyreactivity (PSR sort gate)” value is reported as “high polyreactivity”. In the case of “QVQLVESGGGLVQAAGSLRLSCAASGRTFYDNAMGWYRQAPGKERELVAAITKSGGRTYYVDSVKGRFTISRDNAKNTVYLQMNSLKPEDTAVYYCAASWPNYLYEYWGQGTQVTVSS”, the “polyreactivity (PSR sort gate)” value is reported as “high polyreactivity”. With “QVQLVESGGGLVQAAGSLRLSCAASGRTFYVYDMGWYRQAPGKERELVAVISSSGSTNYADSVKGRFTISGDNAKNSVYLQMNSLKPEDTAVYDCYRRRWYFFSLDYWGQGTQVTVSS” the “polyreactivity (PSR sort gate)” value was “high polyreactivity”. For “QVQLVESGGGLVQAAGSLRLSCAASGSIFGVNVMGWYRQAPGKERELVAAITTSGGSTYYADSVKGRFTISRDNAKNTVYLQMNSLKPEDTAVYYCAAEVYYPIFLTFYYRGQGTQVTVSS”, the “polyreactivity (PSR sort gate)” value was “high polyreactivity”. With “QVQLVESGGGLVQAAGSLRLSCAASGSIFNRSTMGWSRQAPGKERELVAGISRGGTTYYADSVKGRFTISRDNAKNTVYLQMNSLKPEDTAVFYCAADYGLLYGQLWGYGYWGQGTQVTVSS” the “polyreactivity (PSR sort gate)” value was “high polyreactivity”. With “QVQLVESGGGLVQAAGSLRLSCAASGSTFPYYAMGWYRQAPGQERELVAAIPRSGGSTYSADSVKGRFTISRDHAKNTVYLQMNSLKPEDTAVYYCAAKLAQRYFYRYDYWGPGTQVTVSS” the “polyreactivity (PSR sort gate)” value was “high polyreactivity”. With “QVQLVESGGGLVQAAGSLRLSCAASGSTFYRNAMGWYRQAPGKERELVASINNGGSTYYADSVKGRFTISRDNAKNTVYLQMNSLKPEDTAVYYCAATESWDYDYWGQGTQVTVSS” the “polyreactivity (PSR sort gate)” value was “low polyreactivity”. In the case of “QVQLVESGGGLVQAAGSLRLSCAPSGSIYNYTIGWYRQAPGKERELVAAISRSGTRTYYADSVKGRFTISRDNAKNTVYLQMNSLKPEDTAVYYCAARILPPGDNVDDDYWGQGTQVTVSS”, the “polyreactivity (PSR sort gate)” value is reported as “high polyreactivity”. In the case of “QVQLVESGGGLVQAAGSLRLSCDASGRIFAYYAMGWYRQAPGKERELVAAISRSGVSTYYADSVKGRFTISRDNAKNTVYLQMNSLKPEDTAVYYCAARWRSGFTSGDYWGQGTQVTVSS”, the “polyreactivity (PSR sort gate)” value is reported as “low polyreactivity”. In the case of “QVQLVESGGGLVQAAGSLRVSCAASGSIFYSNVMGWYRTEPGKERELVARISDAGSTNYADSVKGRFTISRDNAKNTVYLQMNSLKPEDTAVYYCNARLVIYTYDYWGQGTQVTVSS”, the “polyreactivity (PSR sort gate)” value is reported as “low polyreactivity”. For “QVQLVESGGGLVQAAGSLRVSCAASGSTFSWNPMGWSIQAPGKERELVAASTSGGRTYYADSVKGRFTISRDNAKNTVYLQMNSLKPADTAVYYCAAYATIYRDMGYWGHGTQVTVSS”, the “polyreactivity (PSR sort gate)” value was “high polyreactivity”. In the case of “QVQLVESGGGLVQAGASLRLSCAASGFIFAINTMGWNLQAPGKETELVAGINWRGSSKYYADSVKGRFTISRDNAKNTVYLQMNSLKPEDTAVYYCAARRFWGSDYDYWGLGTQVTVSS”, the “polyreactivity (PSR sort gate)” value is reported as “high polyreactivity”. With “QVQLVESGGGLVQAGASLRLSCAASGFTFDENAMGWYRQAPGINYSGASTYYAHSVKGRFTISRDNAKNTVYIHMNSLQPEDTAVYYCAAEVVAQMNYWGQGTQVTVSS” the “polyreactivity (PSR sort gate)” value was “low polyreactivity”. In the case of “QVQLVESGGGLVQAGASLRLSCAASGFTFGTYVMGWYRQAPGKERELVARITYGGGRTYYADSVKGRFTISRDNAKNTVYLQMNSLNPEDTAVYYSNARVTYSRYFKGYNYWGQGTQVTVSS”, the “polyreactivity (PSR sort gate)” value is reported as “high polyreactivity”. In the case of “QVQLVESGGGLVQAGASLRLSCAASGFTFGWYAMGWSRQARGKERELVAAISYSGGSTYYADSVKGRFTISRDNAKNTVYLQMISLKPEDTAVYYCAALYTGDSGYWGQGTQVTVSS”, the “polyreactivity (PSR sort gate)” value is reported as “high polyreactivity”. For “QVQLVESGGGLVQAGASLRLSCAASGGIFYVYDMGWYRQAPGKERELVAVITFTGGSTYYADSVKGRYTISRDNAKNSVYFQKNRLKPEDTAVYYCAADAYQSAYSGEYDVYTEYDYWGQGTQVTVSS”, the “polyreactivity (PSR sort gate)” value was “low polyreactivity”. In the case of “QVQLVESGGGLVQAGASLRLSCAASGRIFGRNAMGWYRQAPGKERELVAAISSGSGSTYYADSVKGRFTISRDNAKHTVYLQLNSLIPEDTAVYYCAATVSTYLAWRGYWGQGTQVTVSS”, the “polyreactivity (PSR sort gate)” value is reported as “high polyreactivity”. For “QVQLVESGGGLVQAGASLRLSCAASGRIFGVYAMGWYRQAPGKDRELVAGINGGDSTYYADSVKGRFTISRDNAKNTVYLQINSLKPEDTAVYYCAAQADESGSNYDYWGQGTQVTVSS”, the “polyreactivity (PSR sort gate)” value was “low polyreactivity”. For “QVQLVESGGGLVQAGASLRLSCAASGRIFNIYALGWYRQAPGKERELVADITSGGTTYADSVKWRFTISRDNAKNTVYLQMNSLKPEDTAVYYCAAVYRYRNRRDYDYWGQGTQVTVSS”, the “polyreactivity (PSR sort gate)” value was “high polyreactivity”.
